In the RNAGym collection of RNA variant scans (doi:10.1073/pnas.2313332121):

B1: TPR t1 (parent)
chain: GACCAAUCUGCCCUCAGAGCUCGAGAACAUCUUCGGAUGCAGAGGAGGCAGGCUUCGGUGGCGCGAUAGCGCCAACGUCCUCAACCUCCAAUGCAUCCCACCACAUGAUGAUGCCUGAAGAGCCUUGGUUUUUUG

Variants of: B1
Assay: polymerase ribozyme fitness, log enrichment relative to wild type (log ratio); higher = more active; in vitro selection for triplet polymerase activity
Method in brief: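 To select mutant libraries of each subunit of a heterodimeric triplet polymerase ribozyme, built by PCR and transcribed, each was annealed with a biotinylated primer, partner subunit and triplets, then incubated frozen at −7 °C. Extended constructs were gel-excised, captured on streptavidin beads and amplified by RT-PCR, in one round carried out in triplicate. Illumina sequencing of input and output libraries kept genotypes with ≥10 input reads and ≥1 read per output. Fitness is the base-2 logarithm of genotype enrichment relative to wild-type enrichment, from inverse-variance-weighted replicate averages.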

| Variant | polymerase ribozyme fitness (log ratio) |
| --- | --- |
| A18C C20U A84C U96C G117U G127A | -5.53 |
| A18C G39U C49U G120C | -4.35 |
| G17A A41U A84C | -4.63 |
| A16C G23C G61C G63A U87A A105G G110C | -7.62 |
| A16U C22G C64U | -4.96 |
| A18C C56G U59A A100U A111G G127C | -3.88 |
| A18G G120U | -2.46 |
| A18G G120C | -0.633 |
| A16C G44U U78C | -4.35 |
| G17A G36U | -3.69 |
| A16C G52C C62U | -3.32 |
| A16G A74U | -1.36 |
| G17A C115U U125A | 0.421 |
| G17U G135U | -3.6 |
| G17C A37U C64U U92A | -5.44 |
| G17C A90C A121C | -1.46 |
| A16C G57U G71U U87A G127C | -6.26 |
| G17A G69C U112A | -4.29 |
| A16G C124U | 0.601 |
| A16C A50G | -2.32 |
| G17A C62G | -5.69 |

| Variant | polymerase ribozyme fitness (log ratio) |
| --- | --- |
| A16U C28U C76G C82U U116A | -3.83 |
| A16C G58C | -2.65 |
| G17U A68G C73G U112C | -5.21 |
| A18U A43C C49U | -3.92 |
| A16U C73G | -2.59 |
| A18U C85G | -3.16 |
| A18U G39U C104U U112A | -1.88 |
| A16G C76G G120A | -2.25 |
| G17U G44U C72G C85U U96A A121G C124G | -3.95 |
| A16U C40G C56U U112G | -0.767 |
| A16U C40U U87G U92A | -5.02 |
| A16C U38G A46U C56A U59A U87G | -4.62 |
| A18G U32A C76U C124G | -2.81 |
| A18U C20A C97G U109A U116A | -5.44 |
| G17A U78C U129C | -3.37 |
| G17U A27U C40A C64A C85A G117C G127A U129A | -6.49 |
| A16U A46U C49A | -2.45 |
| G17C U54G C124U | -2.64 |
| A16G G44U G113C A119C G135A | -6.45 |
| G17A C40A A43U | -5.48 |
| G17U G48A A50U G60A | -3.1 |

| Variant | polymerase ribozyme fitness (log ratio) |
| --- | --- |
| G17U A27U G42A A43U C85U C124A U133A | -5.61 |
| G17A A37U U54C C70U | -4.08 |
| A16U G58A C72U | -1.69 |
| A18G C20A C64A A111G U112A | -6.09 |
| A16U G63C G120U U125C | -0.937 |
| A16C C20G U59G U106A G113A | -5.4 |
| A18C C104U C123G | 0.269 |
| G17A G36U G120C C123U C124G | -1.43 |
| A18G C49G U87A C89A U116C A118G | -4.85 |
| A16C G44C C49U | -3.94 |
| A16G G71U C123U | -0.364 |
| A18U A46U | -3.64 |
| G17A G48A C102A A119U C123A | -6.09 |
| G17U C34A U112A G120C | -6.92 |
| A18G G57U G69A C85U G120U | -7.29 |
| G17U G71A | -3.25 |
| G17A G110A | -4.08 |
| G17A U38G C115A U116A U131C | -2.73 |
| G17U C49G C64U U131C | -2.89 |
| G17U G42U G128A | -5.51 |
| G17A A66G | -4.85 |

| Variant | polymerase ribozyme fitness (log ratio) |
| --- | --- |
| A18G A68G U116G C123U | -5.7 |
| G17U C34G A50G | -7.24 |
| A18G G19A C88U A90G | -1.41 |
| G17U C88U G127C | -3.89 |
| A18U C76A C94U U112C | -1.22 |
| A18U G25A C34G C53U G61A A100U | -8.02 |
| G17A G39U C49G U78C G117U | -5.4 |
| A16U G93A | -2.35 |
| A16G C40A C49G | -3.32 |
| A16G C76G G117A C123G G135U | -1.57 |
| A18G C72G A84G U92A C115A | -5.47 |
| A16C C49A C94A C124A | -0.594 |
| A18C G42U G69C | -3.2 |
| A16G C22A G47U G48U C64U C123G | -6.67 |
| A16C G122A | -4.43 |
| G17A G42U U106A | -5.21 |
| A18C G45A C49G G61A U133A | -4.6 |
| A16U C104U | -1.25 |
| A18G A121U | -1.13 |
| G17U A84U U96G G128U U130C | -3.54 |
